Screen value data for five variants are collected here from article PMC7954794 (2021).

The chains are these.
B1: S. cerevisiae Abp1 (full length; SH3 domain 535-592 mutated) / Hua2 (parent complex)
chain 1: MALEPIDYTTHSREIDAEYLKIVRGSDPDTTWLIISPNAKKEYEPESTGSSFHDFLQLFDETKVQYGLARVSPPGSDVEKIIIIGWCPDSAPLKTRASFAANFAAVANNLFKGYHVQVTARDEDDLDENELLMKISNAAGARYSIQTSSKQQGKASTPPVKKSFTPSKSPAPVSKKEPVKTPSPAPAAKISSRVNDNNDDDDWNEPELKERDFDQAPLKPNQSSYKPIGKIDLQKVIAEEKAKEDPRLVQKPTAAGSKIDPSSDIANLKNESKLKRDSEFNSFLGTTKPPSMTESSLKNDDDKVIKGFRNEKSPAQLWAERKAKQNSGNAETKAEAPKPEVPEDEPEGEPDVKDLKSKFEGLAASEKEEEEMENKFAPPPKKSEPTIISPKPFSKPQEPVKAEEAEQPKTDYKKIGNPLPGMHIEADNEEEPEENDDDWDDDEDEAAQPPLPSRNVASGAPVQKEEPEQEEIAPSLPSRNSIPAPKQEEAPEQAPEEEIEEEAEEAAPQLPSRSSAAPPPPPRRATPEKKPKENPWATAEYDYDAAEDNELTFVENDKIINIEFVDDDWWLGELEKDGSKGLFPSNYVSLGN
chain 2: MQQTKFGKMYLDHDSVVEYSEDEIVEADRITLGYKKRLSMIENQMRHLLEDFSLDVQQIEPILADLQKYYDAFLQLLQKRNKSLQCKRSTHQPVPSPMNSQTSTNAKVNLSGKLMKFQLNSVQKFDEENILRILQNKIEFEHYFQIDKGKKQKVLLLAVYQCLNGPTRLHKVLNIEGIIHNNSIRTILGKQVSSSKWTVFLYDVKLVLLAHRQDVPNLETSKMIVRYGDLFPCALYFKDHTAY

The variants in this assay derive from B1. The experiment in a line: DHFR protein-fragment complementation in yeast (Abp1-DHFR F[1,2] x partner-DHFR F[3]), deep mutational scanning, second methotrexate selection vs reference; S. cerevisiae, DHFR-PCA selection in liquid with methotrexate at 30 C, two 72 h selections (the score uses the second); reference = the pre-selection culture.
For chain 1 MALEPIDYTTHSREIDAEYLKIVRGSDPDTTWLIISPNAKKEYEPESTGSSFHDFLQLFDETKVQYGLARVSPPGSDVEKIIIIGWCPDSAPLKTRASFAANFAAVANNLFKGYHVQVTARDEDDLDENELLMKISNAAGARYSIQTSSKQQGKASTPPVKKSFTPSKSPAPVSKKEPVKTPSPAPAAKISSRVNDNNDDDDWNEPELKERDFDQAPLKPNQSSYKPIGKIDLQKVIAEEKAKEDPRLVQKPTAAGSKIDPSSDIANLKNESKLKRDSEFNSFLGTTKPPSMTESSLKNDDDKVIKGFRNEKSPAQLWAERKAKQNSGNAETKAEAPKPEVPEDEPEGEPDVKDLKSKFEGLAASEKEEEEMENKFAPPPKKSEPTIISPKPFSKPQEPVKAEEAEQPKTDYKKIGNPLPGMHIEADNEEEPEENDDDWDDDEDEAAQPPLPSRNVASGAPVQKEEPEQEEIAPSLPSRNSIPAPKQEEAPEQAPEEEIEEEAEEAAPQLPSRSSAAPPPPPRRATPEKKPKENPWATAEYDYDAAEDNELTFVENDKIINIEFVDDDWWLGELEKDGSKGLFPSNYVSLWN [chain 1 G591W], the screen value is -0.547 DMS score: mean over two replicates of log2(f_test/f_ref + 0.5)/ln 2, minus the synonymous-codon median (not a log2 ….

Consider chain 1 MALEPIDYTTHSREIDAEYLKIVRGSDPDTTWLIISPNAKKEYEPESTGSSFHDFLQLFDETKVQYGLARVSPPGSDVEKIIIIGWCPDSAPLKTRASFAANFAAVANNLFKGYHVQVTARDEDDLDENELLMKISNAAGARYSIQTSSKQQGKASTPPVKKSFTPSKSPAPVSKKEPVKTPSPAPAAKISSRVNDNNDDDDWNEPELKERDFDQAPLKPNQSSYKPIGKIDLQKVIAEEKAKEDPRLVQKPTAAGSKIDPSSDIANLKNESKLKRDSEFNSFLGTTKPPSMTESSLKNDDDKVIKGFRNEKSPAQLWAERKAKQNSGNAETKAEAPKPEVPEDEPEGEPDVKDLKSKFEGLAASEKEEEEMENKFAPPPKKSEPTIISPKPFSKPQEPVKAEEAEQPKTDYKKIGNPLPGMHIEADNEEEPEENDDDWDDDEDEAAQPPLPSRNVASGAPVQKEEPEQEEIAPSLPSRNSIPAPKQEEAPEQAPEEEIEEEAEEAAPQLPSRSSAAPPPPPRRATPEKKPKENPWATAEYDYDAAEDNELTFVENDKIINIEFVDDDFWLGELEKDGSKGLFPSNYVSLGN [chain 1 W569F], for which the screen value was 0.62 DMS score: mean over two replicates of log2(f_test/f_ref + 0.5)/ln 2, minus the synonymous-codon median (not a log2 ….

Regarding chain 1 MALEPIDYTTHSREIDAEYLKIVRGSDPDTTWLIISPNAKKEYEPESTGSSFHDFLQLFDETKVQYGLARVSPPGSDVEKIIIIGWCPDSAPLKTRASFAANFAAVANNLFKGYHVQVTARDEDDLDENELLMKISNAAGARYSIQTSSKQQGKASTPPVKKSFTPSKSPAPVSKKEPVKTPSPAPAAKISSRVNDNNDDDDWNEPELKERDFDQAPLKPNQSSYKPIGKIDLQKVIAEEKAKEDPRLVQKPTAAGSKIDPSSDIANLKNESKLKRDSEFNSFLGTTKPPSMTESSLKNDDDKVIKGFRNEKSPAQLWAERKAKQNSGNAETKAEAPKPEVPEDEPEGEPDVKDLKSKFEGLAASEKEEEEMENKFAPPPKKSEPTIISPKPFSKPQEPVKAEEAEQPKTDYKKIGNPLPGMHIEADNEEEPEENDDDWDDDEDEAAQPPLPSRNVASGAPVQKEEPEQEEIAPSLPSRNSIPAPKQEEAPEQAPEEEIEEEAEEAAPQLPSRSSAAPPPPPRRATPEKKPKENPWATAEYDYDAAEDNELTFVENDKIINIEFVDDDWWLGELEKDGSKGWFPSNYVSLGN [chain 1 L582W], the screen value is 0.141 DMS score: mean over two replicates of log2(f_test/f_ref + 0.5)/ln 2, minus the synonymous-codon median (not a log2 ….

As to chain 1 MALEPIDYTTHSREIDAEYLKIVRGSDPDTTWLIISPNAKKEYEPESTGSSFHDFLQLFDETKVQYGLARVSPPGSDVEKIIIIGWCPDSAPLKTRASFAANFAAVANNLFKGYHVQVTARDEDDLDENELLMKISNAAGARYSIQTSSKQQGKASTPPVKKSFTPSKSPAPVSKKEPVKTPSPAPAAKISSRVNDNNDDDDWNEPELKERDFDQAPLKPNQSSYKPIGKIDLQKVIAEEKAKEDPRLVQKPTAAGSKIDPSSDIANLKNESKLKRDSEFNSFLGTTKPPSMTESSLKNDDDKVIKGFRNEKSPAQLWAERKAKQNSGNAETKAEAPKPEVPEDEPEGEPDVKDLKSKFEGLAASEKEEEEMENKFAPPPKKSEPTIISPKPFSKPQEPVKAEEAEQPKTDYKKIGNPLPGMHIEADNEEEPEENDDDWDDDEDEAAQPPLPSRNVASGAPVQKEEPEQEEIAPSLPSRNSIPAPKQEEAPEQAPEEEIEEEAEEAAPQLPSRSSAAPPPPPRRATPEKKPKENPWATAEYDYDAAEDNELTFVENDKIINIEFVDDDWWLGELEQDGSKGLFPSNYVSLGN [chain 1 K576Q], the screen value was -0.814 DMS score: mean over two replicates of log2(f_test/f_ref + 0.5)/ln 2, minus the synonymous-codon median (not a log2 ….

As to chain 1 MALEPIDYTTHSREIDAEYLKIVRGSDPDTTWLIISPNAKKEYEPESTGSSFHDFLQLFDETKVQYGLARVSPPGSDVEKIIIIGWCPDSAPLKTRASFAANFAAVANNLFKGYHVQVTARDEDDLDENELLMKISNAAGARYSIQTSSKQQGKASTPPVKKSFTPSKSPAPVSKKEPVKTPSPAPAAKISSRVNDNNDDDDWNEPELKERDFDQAPLKPNQSSYKPIGKIDLQKVIAEEKAKEDPRLVQKPTAAGSKIDPSSDIANLKNESKLKRDSEFNSFLGTTKPPSMTESSLKNDDDKVIKGFRNEKSPAQLWAERKAKQNSGNAETKAEAPKPEVPEDEPEGEPDVKDLKSKFEGLAASEKEEEEMENKFAPPPKKSEPTIISPKPFSKPQEPVKAEEAEQPKTDYKKIGNPLPGMHIEADNEEEPEENDDDWDDDEDEAAQPPLPSRNVASGAPVQKEEPEQEEIAPSLPSRNSIPAPKQEEAPEQAPEEEIEEEAEEAAPQLPSRSSAAPPPPPRRATPEKKPKENPWATAEYDYDAAEDNELTFVENDKIINIEFVDDDWWLGELQKDGSKGLFPSNYVSLGN [chain 1 E575Q], the screen value is 0.336 DMS score: mean over two replicates of log2(f_test/f_ref + 0.5)/ln 2, minus the synonymous-codon median (not a log2 ….
